Experimental findings from article PMC8995368 (Structure (London, England : 1993), 2022) are described below.

This series deals with the molecule itself. In words: crystal structure.

B1: Myxococcus xanthus encapsulin cargo protein EncB (ferritin-like protein) (natural protein, M. xanthus, UniProt Q1D6H3 1-158, looked up)
chain: MAGPPDSDLDDVARIRLVLARELETINEYEAYARASSNPEVRAFFQHLAAEEKEHVSEAVHMLRMLDSGQNDHFAKPFVPGHFQAAEAPAPATVHVPTPDGPAFSVNGRNGRLPSEPPTSLPPQRLLYGLPAPPPAVESHPLTVGSLRRGGGGSGSGR
Regarding B1, the stoichiometry N – broadly, a count of units in the complex or per binding partner – was found to be 10.

B2: Myxococcus xanthus encapsulin cargo protein EncC (ferritin-like protein) (natural protein, M. xanthus)
chain: MPQTNPFHSLVPRKMTDTELARSIRLNIEAELDAINLYAAHIDATDNEDAKAILQHVMDEEREHAALFWELIARLDPEQAAHAKEAVEKYRLITSGASHEAVEAVGKEGAAPSPADVTPEKRLTVGSLRR
As for B2, the “stoichiometry N” value came to 10.
